From patent publication US20240083948A1 (ADVANCED TECHNOLOGIES FOR NOVEL THERAPEUTICS, published 2024)

Key:
Assay in all cases: cell-based or functional assay
AKT2 (PKB beta) = AKT2 (PKB beta) (UniProt P31751 1-481, limits assumed)
PAK3 = PAK3 (UniProt O75914 1-559, limits assumed)
AKT1 (PKB alpha), active = AKT1 (PKB alpha), active (UniProt P31749 1-480, limits assumed)
JAK3 = JAK3 (UniProt P52333 781-1124, limits assumed)
RPS6KB1 (p70S6K) = RPS6KB1 (p70S6K) (UniProt P23443 1-421, limits assumed)
SGK (SGK1) = target: T1, SGK (SGK1) (UniProt O00141 60-431, limits assumed)
T1 sequence (looked up): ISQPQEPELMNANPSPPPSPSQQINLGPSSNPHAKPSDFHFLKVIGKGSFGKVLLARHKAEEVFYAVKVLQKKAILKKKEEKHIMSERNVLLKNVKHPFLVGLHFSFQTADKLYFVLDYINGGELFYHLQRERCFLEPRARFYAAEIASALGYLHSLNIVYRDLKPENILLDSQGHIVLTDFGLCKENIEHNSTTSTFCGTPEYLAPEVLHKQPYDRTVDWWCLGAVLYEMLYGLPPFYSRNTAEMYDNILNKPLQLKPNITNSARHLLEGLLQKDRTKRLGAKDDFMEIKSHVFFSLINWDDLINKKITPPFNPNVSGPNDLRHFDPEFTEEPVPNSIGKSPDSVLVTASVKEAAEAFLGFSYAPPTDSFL

PI3Kδ = target: T2, PI3Kδ (UniProt O00329 1-1044, limits assumed)
T2 sequence (looked up): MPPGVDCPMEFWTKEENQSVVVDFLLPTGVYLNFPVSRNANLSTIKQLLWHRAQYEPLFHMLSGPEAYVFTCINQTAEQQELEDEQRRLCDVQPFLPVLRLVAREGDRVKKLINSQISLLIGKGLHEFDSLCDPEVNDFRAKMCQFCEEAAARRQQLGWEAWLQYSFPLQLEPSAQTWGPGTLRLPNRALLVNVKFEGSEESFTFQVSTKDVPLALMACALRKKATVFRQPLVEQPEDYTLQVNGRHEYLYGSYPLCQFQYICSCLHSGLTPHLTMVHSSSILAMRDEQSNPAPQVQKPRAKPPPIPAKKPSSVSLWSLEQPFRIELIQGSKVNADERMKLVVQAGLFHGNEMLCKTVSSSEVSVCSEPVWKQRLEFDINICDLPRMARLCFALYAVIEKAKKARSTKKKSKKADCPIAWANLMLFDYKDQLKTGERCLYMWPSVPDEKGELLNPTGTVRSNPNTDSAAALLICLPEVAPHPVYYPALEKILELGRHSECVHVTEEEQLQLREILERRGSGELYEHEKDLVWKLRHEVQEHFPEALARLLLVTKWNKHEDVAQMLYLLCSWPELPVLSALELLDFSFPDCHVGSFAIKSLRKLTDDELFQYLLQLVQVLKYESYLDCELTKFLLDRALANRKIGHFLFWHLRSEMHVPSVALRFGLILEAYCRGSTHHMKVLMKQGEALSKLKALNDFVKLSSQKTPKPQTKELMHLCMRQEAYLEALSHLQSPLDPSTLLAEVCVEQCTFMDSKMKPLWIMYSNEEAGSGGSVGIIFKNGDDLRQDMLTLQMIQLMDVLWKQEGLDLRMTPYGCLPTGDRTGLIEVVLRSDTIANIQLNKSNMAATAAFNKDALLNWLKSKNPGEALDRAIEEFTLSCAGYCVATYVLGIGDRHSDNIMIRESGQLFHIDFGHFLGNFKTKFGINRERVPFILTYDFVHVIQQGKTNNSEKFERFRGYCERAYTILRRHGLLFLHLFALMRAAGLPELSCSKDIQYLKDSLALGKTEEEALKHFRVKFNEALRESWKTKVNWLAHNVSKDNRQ

TrkB = TrkB (UniProt Q16620 455-822, limits assumed)
Abl = Abl (UniProt P00519 27-1130, limits assumed)
Abl, sequence (P00519 27-1130 limits assumed): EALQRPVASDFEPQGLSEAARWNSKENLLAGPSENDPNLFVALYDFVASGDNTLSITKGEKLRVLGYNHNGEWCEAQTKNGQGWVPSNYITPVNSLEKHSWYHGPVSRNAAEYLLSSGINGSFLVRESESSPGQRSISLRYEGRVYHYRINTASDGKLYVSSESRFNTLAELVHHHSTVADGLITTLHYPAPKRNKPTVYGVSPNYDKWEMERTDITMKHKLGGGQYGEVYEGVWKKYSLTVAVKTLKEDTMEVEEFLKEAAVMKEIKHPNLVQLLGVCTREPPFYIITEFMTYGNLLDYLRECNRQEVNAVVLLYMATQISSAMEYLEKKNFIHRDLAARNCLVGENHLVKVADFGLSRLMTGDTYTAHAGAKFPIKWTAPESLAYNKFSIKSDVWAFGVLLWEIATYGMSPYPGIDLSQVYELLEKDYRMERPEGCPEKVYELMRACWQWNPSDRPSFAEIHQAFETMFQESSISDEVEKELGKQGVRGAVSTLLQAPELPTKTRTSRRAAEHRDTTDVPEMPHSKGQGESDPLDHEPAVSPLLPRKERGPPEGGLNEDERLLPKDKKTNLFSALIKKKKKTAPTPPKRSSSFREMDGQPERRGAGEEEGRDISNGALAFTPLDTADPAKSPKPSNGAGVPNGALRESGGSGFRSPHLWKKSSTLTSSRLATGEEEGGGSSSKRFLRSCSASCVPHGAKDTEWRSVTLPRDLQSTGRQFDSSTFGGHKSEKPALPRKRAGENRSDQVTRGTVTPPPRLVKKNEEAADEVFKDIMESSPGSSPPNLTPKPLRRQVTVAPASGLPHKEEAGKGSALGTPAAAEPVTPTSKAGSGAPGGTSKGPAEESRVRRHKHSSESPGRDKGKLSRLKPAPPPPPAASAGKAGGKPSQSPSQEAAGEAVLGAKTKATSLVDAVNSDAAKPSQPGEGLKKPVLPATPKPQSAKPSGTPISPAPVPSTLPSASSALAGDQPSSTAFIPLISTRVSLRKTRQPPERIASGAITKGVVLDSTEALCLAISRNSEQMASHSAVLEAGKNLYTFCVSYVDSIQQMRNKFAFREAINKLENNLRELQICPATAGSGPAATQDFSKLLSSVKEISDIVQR

TrkB, sequence (Q16620 455-822 limits assumed): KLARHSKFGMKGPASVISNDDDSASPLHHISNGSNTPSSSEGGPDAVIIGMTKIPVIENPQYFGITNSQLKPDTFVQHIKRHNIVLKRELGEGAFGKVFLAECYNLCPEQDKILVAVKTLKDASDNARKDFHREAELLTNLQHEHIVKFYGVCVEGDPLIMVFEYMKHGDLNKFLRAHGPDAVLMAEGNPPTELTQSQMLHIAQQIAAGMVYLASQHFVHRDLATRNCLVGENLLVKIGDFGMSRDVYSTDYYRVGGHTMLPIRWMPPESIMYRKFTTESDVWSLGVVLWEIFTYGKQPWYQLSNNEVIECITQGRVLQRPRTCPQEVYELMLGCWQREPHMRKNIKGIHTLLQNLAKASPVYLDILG
RPS6KB1 (p70S6K), sequence (P23443 1-421 limits assumed): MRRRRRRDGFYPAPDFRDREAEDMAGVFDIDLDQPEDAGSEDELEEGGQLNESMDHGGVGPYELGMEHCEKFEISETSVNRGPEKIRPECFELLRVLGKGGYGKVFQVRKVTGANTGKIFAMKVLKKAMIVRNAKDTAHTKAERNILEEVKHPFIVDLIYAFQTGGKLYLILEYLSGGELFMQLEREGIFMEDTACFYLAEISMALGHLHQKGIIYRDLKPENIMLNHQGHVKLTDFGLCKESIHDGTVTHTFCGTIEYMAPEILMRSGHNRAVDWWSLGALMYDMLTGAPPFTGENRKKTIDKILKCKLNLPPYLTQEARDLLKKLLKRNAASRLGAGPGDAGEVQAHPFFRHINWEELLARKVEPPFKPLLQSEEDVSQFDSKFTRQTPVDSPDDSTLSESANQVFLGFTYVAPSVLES
PAK3, sequence (O75914 whole entry): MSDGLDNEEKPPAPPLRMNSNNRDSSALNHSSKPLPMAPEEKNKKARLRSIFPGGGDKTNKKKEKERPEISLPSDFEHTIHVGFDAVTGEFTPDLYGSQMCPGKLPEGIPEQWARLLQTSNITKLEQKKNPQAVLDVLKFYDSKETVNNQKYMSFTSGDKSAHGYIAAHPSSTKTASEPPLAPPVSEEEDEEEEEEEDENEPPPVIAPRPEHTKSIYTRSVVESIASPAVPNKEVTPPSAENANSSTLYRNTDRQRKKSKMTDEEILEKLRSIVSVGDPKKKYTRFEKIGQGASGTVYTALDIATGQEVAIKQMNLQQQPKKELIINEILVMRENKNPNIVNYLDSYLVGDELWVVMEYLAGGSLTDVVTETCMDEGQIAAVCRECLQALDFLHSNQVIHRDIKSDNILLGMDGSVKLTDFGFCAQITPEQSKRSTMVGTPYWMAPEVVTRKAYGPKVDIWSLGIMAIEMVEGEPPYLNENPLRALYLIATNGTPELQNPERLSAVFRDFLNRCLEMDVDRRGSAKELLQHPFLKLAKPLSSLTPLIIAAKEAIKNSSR
AKT2 (PKB beta), sequence (P31751 whole entry): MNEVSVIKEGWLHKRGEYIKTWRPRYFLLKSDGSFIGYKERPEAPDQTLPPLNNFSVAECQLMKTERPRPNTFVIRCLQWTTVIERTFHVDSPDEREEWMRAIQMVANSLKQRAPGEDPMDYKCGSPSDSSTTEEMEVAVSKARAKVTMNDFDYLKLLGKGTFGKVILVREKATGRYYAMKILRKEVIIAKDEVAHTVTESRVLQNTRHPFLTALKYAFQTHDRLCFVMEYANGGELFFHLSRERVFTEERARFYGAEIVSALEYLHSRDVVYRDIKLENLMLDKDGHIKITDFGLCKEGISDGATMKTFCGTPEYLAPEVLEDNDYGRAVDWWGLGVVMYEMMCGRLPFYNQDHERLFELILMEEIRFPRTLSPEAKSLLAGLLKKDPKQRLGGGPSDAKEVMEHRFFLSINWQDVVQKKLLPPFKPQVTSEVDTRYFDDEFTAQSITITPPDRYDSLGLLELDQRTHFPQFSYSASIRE
AKT1 (PKB alpha), active, sequence (P31749 whole entry): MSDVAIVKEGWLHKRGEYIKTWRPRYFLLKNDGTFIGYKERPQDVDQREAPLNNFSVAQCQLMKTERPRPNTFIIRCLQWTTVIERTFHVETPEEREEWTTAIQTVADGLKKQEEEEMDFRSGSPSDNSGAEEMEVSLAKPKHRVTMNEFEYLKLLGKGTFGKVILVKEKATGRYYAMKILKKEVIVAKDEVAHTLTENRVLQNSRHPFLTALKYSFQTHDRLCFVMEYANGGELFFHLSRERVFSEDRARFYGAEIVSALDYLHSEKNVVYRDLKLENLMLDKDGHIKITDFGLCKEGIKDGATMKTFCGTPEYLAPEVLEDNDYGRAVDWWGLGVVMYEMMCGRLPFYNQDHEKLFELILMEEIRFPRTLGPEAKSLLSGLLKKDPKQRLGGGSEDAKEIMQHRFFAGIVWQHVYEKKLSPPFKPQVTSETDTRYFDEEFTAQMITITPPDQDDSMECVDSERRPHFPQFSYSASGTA
JAK3, sequence (P52333 781-1124 limits assumed): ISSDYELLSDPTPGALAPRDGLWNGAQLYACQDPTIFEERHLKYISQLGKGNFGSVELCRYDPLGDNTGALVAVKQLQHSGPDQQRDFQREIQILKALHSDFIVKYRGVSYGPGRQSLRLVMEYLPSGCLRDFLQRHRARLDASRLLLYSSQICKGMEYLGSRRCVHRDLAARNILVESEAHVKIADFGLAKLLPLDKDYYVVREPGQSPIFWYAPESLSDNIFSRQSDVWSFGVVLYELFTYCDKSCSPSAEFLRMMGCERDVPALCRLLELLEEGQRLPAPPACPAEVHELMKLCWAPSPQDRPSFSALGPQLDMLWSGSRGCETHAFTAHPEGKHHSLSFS

B1: ZaTa peptide (Ala-Lys-Arg-Val-Lys-Gly-Arg-Thr-Trp-Thr-Leu-Cys-Gly-Thr-Pro-Glu-Tyr) (peptide)
peptide: AKRVKGRTWTLCGTPEY
in vitro kinase assay at ten times the IC50 for AKT1, percent inhibited (AKT2 (PKB beta)): 63%
in vitro kinase assay at ten times the IC50 for AKT1, percent inhibited (PAK3): 83%
IC50, AKT1 in vitro catalytic activity (incorporation of γ-32P into Ser-21 GSK-3β substrate peptide) (AKT1 (PKB alpha), active): ~100 nM
in vitro kinase assay at ten times the IC50 for AKT1, percent inhibited (JAK3): 79%
in vitro kinase assay at ten times the IC50 for AKT1, percent inhibited (RPS6KB1 (p70S6K)): 64%
in vitro kinase assay at ten times the IC50 for AKT1, percent inhibited (SGK (SGK1)): 73%
in vitro kinase assay at ten times the IC50 for AKT1, percent inhibited (PI3Kδ): 72%
in vitro kinase assay at ten times the IC50 for AKT1, percent inhibited (TrkB): 84%
in vitro kinase assay at ten times the IC50 for AKT1, percent inhibited (Abl): 42%
